Laboratory results as given in patent publication US6399747 (Amgen, dated 2002).

Experiments:
[1] = target: T1, mPAL (amino acids 11 to 648) expressed in 293T cells from pcDNA3.1-mPAL (mouse, UniProt Q9Z179 11-648); test: GST pull-down from 293T-mPAL lysate, anti-mPAL immunoblot
T1 sequence: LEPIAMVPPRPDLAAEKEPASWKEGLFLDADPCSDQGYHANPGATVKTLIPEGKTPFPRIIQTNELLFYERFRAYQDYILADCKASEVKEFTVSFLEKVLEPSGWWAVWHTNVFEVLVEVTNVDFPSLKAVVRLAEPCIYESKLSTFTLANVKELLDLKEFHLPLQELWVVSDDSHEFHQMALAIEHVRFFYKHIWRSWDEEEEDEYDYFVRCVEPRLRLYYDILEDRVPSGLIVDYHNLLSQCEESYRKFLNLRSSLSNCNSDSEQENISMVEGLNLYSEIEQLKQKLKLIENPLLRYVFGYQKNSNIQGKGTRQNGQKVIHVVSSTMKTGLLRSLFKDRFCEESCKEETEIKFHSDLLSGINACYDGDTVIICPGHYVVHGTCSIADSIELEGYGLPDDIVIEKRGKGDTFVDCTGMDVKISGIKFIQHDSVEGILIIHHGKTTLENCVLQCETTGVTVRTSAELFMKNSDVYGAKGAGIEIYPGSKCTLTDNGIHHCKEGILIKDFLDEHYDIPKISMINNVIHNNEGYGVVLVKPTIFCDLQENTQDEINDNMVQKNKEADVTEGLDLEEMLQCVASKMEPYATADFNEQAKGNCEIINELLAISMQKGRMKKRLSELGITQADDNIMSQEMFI
Protocol: To examine the specificity of the mPAL-Shc SH2 interaction, a series of GST-SH2 fusion proteins generated from several signal transduction molecules were tested for their ability to precipitate mPAL. A panel of GST-SH2 fusion proteins generated from several signal transduction molecules (Shc PTB domain, Blaikie et al., *J. Biol. Chem.* 269:23031–32034(1994), Shc SH2 domain, Pellici et al., *Cell* 70:93–104 (1992), Grb2 SH2 domain, Rozakis-Adcock et al., *Nature* 360:689–692 (1992), Vav SH2 domain Margolis et al., *Nature* 356: 71–74 (1992), N-terminal SH2 domain of ras-GAP, N-terminal SH2 domain (p85-N) and C-terminal SH2 domain (p85-C) of p85 subunit of PI-3 kinase, N-terminal SH2 domain (PLCγ-N), and C-terminal SH2 domain (PLCγ-C) of phospholipase C-γ1 Anderson et al., *Science* 250:979–982 (1992), Ellis et al., *Mol. Cell Biol.* 12:991–997(1992), and Nck SH2 domain, Lehman et al., *Nucl. Acids Res.* 18:1048 (1990), were immobilized on glutathione-Sepharose beads.

[2] = target: T2, mPAL cDNA clone from the yeast two-hybrid screen, fused to the GAL4 transcription activation domain (yeast; mouse, UniProt Q9Z179 16-668); test: yeast two-hybrid
T2 construct: Eleven clones were isolated (3 from T-cell, 8 from embryo library); As an in-frame fusion it may start at residue 11; also called GAL4-cDNA fusion; GAL4-TA fusion
T2 sequence: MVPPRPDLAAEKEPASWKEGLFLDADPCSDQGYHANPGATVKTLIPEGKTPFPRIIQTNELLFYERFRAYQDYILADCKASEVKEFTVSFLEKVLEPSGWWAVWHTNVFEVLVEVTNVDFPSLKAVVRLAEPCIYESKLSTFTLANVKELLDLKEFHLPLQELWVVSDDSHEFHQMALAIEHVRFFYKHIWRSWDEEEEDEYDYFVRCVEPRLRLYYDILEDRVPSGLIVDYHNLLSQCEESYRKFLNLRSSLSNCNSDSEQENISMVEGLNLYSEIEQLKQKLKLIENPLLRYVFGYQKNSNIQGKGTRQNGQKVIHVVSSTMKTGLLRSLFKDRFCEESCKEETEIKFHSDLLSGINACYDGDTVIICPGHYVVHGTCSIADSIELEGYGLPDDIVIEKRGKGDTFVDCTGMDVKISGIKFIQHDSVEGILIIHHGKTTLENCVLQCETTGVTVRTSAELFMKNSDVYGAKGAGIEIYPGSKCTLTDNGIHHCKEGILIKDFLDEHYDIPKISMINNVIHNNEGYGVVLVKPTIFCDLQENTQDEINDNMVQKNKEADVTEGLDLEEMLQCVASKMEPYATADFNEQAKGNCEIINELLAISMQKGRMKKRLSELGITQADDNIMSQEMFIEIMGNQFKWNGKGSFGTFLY

B1: GST-Nck SH2 (amino acids 281-377 of human Nck) (other, UniProt P16333 281-377, looked up)
chain: PWYYGKVTRHQAEMALNERGHEGDFLIRDSESSPNDFSVSLKAQGKNKHFKVQLKETVYCIGQRKFSTMEELVEHYKKAPIFTSEQGEKLYLVKHLS
notes: range 281-377; not shown: glutathione S-transferase (GST)
B1: no binding [1].

B2: CH1 domain of p52 Shc (yeast two-hybrid construct) (other, UniProt P29353-2 230-377, looked up)
chain: EEEEPPDHQYYNDFPGKEPPLGGVVDMRLREGAAPGAARPTAPNAQTPSHLGATLPVGQPVGGDPEVRKQMPPPPPCPGRELFDDPSYVNVQNLDKARQAVGGAGPPNPAINGSAPRDLFDMKPFEDALRVPPPPQSVSMAEQLRGEP
notes: domain: CH1; Construct is not described
B2: no binding [2].

B3: PTB domain of p52 Shc (yeast two-hybrid construct) (other, UniProt P29353-2 1-209, looked up)
chain: MNKLSGGGGRRTRVEGGQLGGEEWTRHGSFVNKPTRGWLHPNDKVMGPGVSYLVRYMGCVEVLQSMRALDFNTRTQVTREAISLVCEAVPGAKGATRRRKPCSRPLSSILGRSNLKFAGMPITLTVSTSSLNLMAADCKQIIANHHMQSISFASGGDPDTAEYVAYVAKDPVNQRACHILECPEGLAQDVISTIGQAFELRFKQYLRNP
notes: domain: PTB; Construct is not described
B3: no binding [2].
